Measurements as given in patent US12351833B2, “Unspecific peroxygenase enzyme variants for selective fatty acid epoxidation or hydroxylation” (CONSEJO SUPERIOR DE INVESTIGACIONES CIENTÍFICAS (CSIC), priority 2019, dated 2025).
Positions count from the first letter of the chain named. Names may count otherwise.

B1: rMroUPO: recombinant Marasmius rotula unspecific peroxygenase, SEQ ID NO: 1, encoded by SEQ ID NO: 9, expressed in E. coli (protein)
chain: SAHPWKAPGPNDSRGPCPGLNTLANHGFLPRNGRNISVPMIVKAGFEGYNVQSDILILAGKIGMLTSREADTISLEDLKLHGTIEHDASLSREDVAIGDNLHFNEAIFTTLANSNPGADVYNISSAAQVQHDRLADSLARNPNVTNTDLTATIRSSESAFFLTVMSAGDPLRGEAPKKFVNVFFREERMPIKEGWKRSTTPITIPLLGPIIERITELSDWKPTGDNCGAIVLSPEL
modifications: Recombinant Marasmius rotula unspecific peroxygenase enzyme, rMroUPO
B2: rMroUPO I153F/S156F mutated variant: rMroUPO in which isoleucine 153 and serine 156 were both replaced by phenylalanine (SEQ ID NO: 3) (protein)
chain: B1 chain with I153F, S156F
modifications: Variant of the invention which comprises the SEQ ID NO 1 and the amino acid substitutions I153F and S156F
B3: rMroUPO I153T mutated variant: rMroUPO in which isoleucine 153 was replaced by threonine (SEQ ID NO: 2) (protein)
chain: B1 chain with I153T
modifications: Variant of the invention which comprises the SEQ ID NO 1 and the amino acid substitution I153T

What was measured:
Format in all cases: biochemical
[1] = Reaction of UPO enzyme with oleic acid and H2O2, products analysed by GC-MS; settings: for Conversion of the substrate (oleic acid) into products / selectivity towards only epoxidation (ratio between only epoxides and other oxygenation products) / share of products that are only epoxides / share of products that are other (hydroxylated) epoxides / epoxidation activity / epoxidized species detected (words): enzyme 0.2 μM, oleic acid 100 μM, H2O2 2,500 μM; for Conversion of the substrate (oleic acid) into products: 30° C., 50 mM phosphate pH 5.5, 30 min, 20% acetone; for selectivity towards only epoxidation (ratio between only epoxides and other oxygenation products) / share of products that are only epoxides / share of products that are other (hydroxylated) epoxides / epoxidation activity / epoxidized species detected (words): pH 5.5, 30° C., 30 min
Protocol: The rMroUPO (0.2 μM) was incubated with oleic acid (100 μM) and H2O2 (2,500 μM) at 30° C. in 50 mM phosphate, pH 5.5, for 30 min. Oleic acid had been previously dissolved in acetone so that the final acetone concentration attained 20% (v/v) in the embodiment. After the incubation time, the products were recovered by liquid-liquid extraction with t-butyl-methyl-ether. The organic solvent was removed under N2 current. N,O-Bis-(trimethylsilyl)trifluoroacetamide was employed to prepare the trimethylsilyl derivatives of the compounds to be separated by gas chromatography and identified by mass spectrometry.
(§1) Chromatographic analyses were carried out in a gas chromatograph coupled to a mass-spectrometry detector. The column used was a fused-silica DB-5HT capillary column (30 m×0.25 mm internal diameter×0.1 μm film thickness). Oven was heated from 120° C. (1 min) to 300° C. (5 min) at 5° C.·min. Injection was performed at 300° C. and transfer line was maintained at 300° C. Compounds were identified by comparison of their mass spectra with those of authentic standards and those from the NIST and Wiley libraries as well as by mass fragmentography. Quantification of the products was carried out by integrating the total ion peak areas, using external standard curves of the same or closely related compounds.
Reactions with oleic acid and identification and quantification of the products were conducted as explained in Example 3.
The rMroUPO I153F/S156F mutated variant (SEQ ID NO: 3), in which isoleucine 153 and serine 156 were both replaced by phenylalanine residues, was constructed by site-directed mutagenesis, in a PCR reaction in which the following oligos—complementary to the region of the gene to be mutated, but bearing the desired mismatches—were used as primers: 5′-[…]-3′ (SEQ ID NO: 8), along with its reverse complementary counterpart. PCR reaction and sequencing of the mutated variant were carried out as described in Example 4. Expression, purification of the enzyme, reactions with oleic acid and GC-MS identification and quantification of the products were conducted as in Example 3.

[2] = Reaction of UPO enzyme with linoleic acid and H2O2, products analysed by GC-MS; settings: for Conversion of linoleic acid / selectivity towards only epoxidation (ratio between only epoxides and other oxygenation products) / share of products that are hydroxylated epoxides / share of products that are only epoxides: enzyme 0.6 μM, linoleic acid 100 μM, H2O2 1,250 μM; for Conversion of linoleic acid: 30° C., 50 mM phosphate pH 5.5, 30 min, 20% acetone; for selectivity towards only epoxidation (ratio between only epoxides and other oxygenation products) / share of products that are hydroxylated epoxides / share of products that are only epoxides: pH 5.5, 30° C., 30 min
Protocol: as §1
An embodiment was designed in which rMroUPO (0.6 μM) was incubated with linoleic acid (100 μM, previously dissolved in acetone so that the final acetone concentration in the embodiment was of 20%) and H2O2 (1,250 μM) at 30° C. in 50 mM phosphate, pH 5.5, for 30 min. Identification and quantification of the products was conducted as detailed in Example 3.
Reactions were performed as in Example 6. Identification and quantification of the products is described in Example 3.

[3] = Reaction of UPO enzyme with α-linolenic acid and H2O2, products analysed by GC-MS; settings: for Conversion of α-linolenic acid: 30° C., 50 mM phosphate pH 5.5, 30 min
Protocol: as §1
Reactions were performed in an embodiment consisting of rMroUPO (0.2 μM), incubated with α-linolenic acid (100 μM) and H2O2 (1,250 μM) at 30° C., in 50 mM phosphate, pH 5.5, for 30 min. Extraction and separation of the reaction products was carried out as described in Example 3. Since no available commercial standards of epoxidized α-linolenic acid were available, they were chemically synthesised as follows: a solution of peracetic acid (1.8 mmol, 3.6 equiv) and NaOAc (0.7 mmol; 1.4 equiv) was added to α-linolenic acid (0.5 mmol) using a syringe pump at 0° C. for 1 h. The mixture was stirred at 0° C. for an additional h. Products were recovered by liquid-liquid extraction with t-butyl-methyl-ether, resulting in a mixture of mono- and di-epoxides. Identification of the compounds was made by comparison of the mass spectra with those of the synthesised standards and by mass fragmentography. Quantification was carried out as detailed in Example 3.
Reactions and analyses of the products were performed as in Example 8. FIG. 7 illustrates a chromatogram of the reaction products, among which single epoxides, di-epoxides and other epoxidized derivatives. Conversion of the substrate attained 97%, of which 92% (of which 88% are di-epoxides) represented only epoxides and a mere 8% other epoxide derivatives. Therefore, the selectivity towards only epoxidation reached 11.50.

[4] = enzyme 0.2 μM, α-linolenic acid 100 μM, H2O2 1,250 μM
[5] = α-linolenic acid 100 μM, enzyme 0.2 μM, H2O2 1,250 μM, pH 5.5, 30° C., 30 min

| Molecule | Conversion of the substrate (oleic acid) into products [1] [%] | selectivity towards only epoxidation (ratio between only epoxides and other oxygenation products) [1] | share of products that are only epoxides [1] [%] | share of products that are other (hydroxylated) epoxides [1] [%] | Conversion of linoleic acid [2] [%] | selectivity towards only epoxidation (ratio between only epoxides and other oxygenation products) [2] | share of products that are hydroxylated epoxides [2] [%] | share of products that are only epoxides [2] [%] | Conversion of α-linolenic acid [3, 4] [%] | selectivity towards only epoxidation (ratio between only epoxides and other oxygenation products) [3, 5] | share of products that are only epoxides [3, 5] [%] | share of products that are other epoxides / other epoxide derivatives [3, 5] [%] | further results |
| --- | --- | --- | --- | --- | --- | --- | --- | --- | --- | --- | --- | --- | --- |
| B1 | 94 | 0.67 | 40 | 57 | 98 | 0.27 | 79 | 21 | 98 | 0.79 | 44 | 56 | – |
| B2 | – | – | – | – | – | – | – | – | – | – | – | – | epoxidation activity / epoxidized species detected (words) ([1]; listed as I153F/S156F mutated variant): completely abolishes the epoxidation activity; epoxidation activity / epoxidized species detected (words) ([1]; listed as I153F/S156F variant): completely abolished the MroUPO ability to epoxidize oleic acid; epoxidation activity / epoxidized species detected (words) ([1]; listed as MroUPO I153F/S156F mutated variant): No traces of epoxidized species were detected; selectivity towards hydroxylation ([1]; oleic acid, products restricted to ω-1 and ω hydroxylated, keto and carboxylic species): total towards hydroxylation |
| B3 | 85 | 2.67 | 72 | 17 | 93 | 0.72 | 58 | 42 | 97 | 11.50 | 92 | 8 | increase of epoxidation selectivity relative to rMroUPO ([1]; oleic acid): 4 fold; ratio between stearic acid epoxide and its additionally hydroxylated derivatives (words, vs MroUPO) ([1]; oleic acid): increased; increase of epoxidation selectivity relative to rMroUPO ([2]; linoleic acid): 2.7 fold; increase of epoxidation selectivity relative to rMroUPO ([3]; α-linolenic acid): 14.6 fold; share of di-epoxides among only epoxides [3, 5]: 88% |
